Tests used:
c-Fos = experiment: Western blot of c-Fos activation following GST-RANKL treatment of cells; type: cell-based; conditions: osteoblasts and osteoblast precursor cells; FIG. 9, 0-120 minutes
Procedure: Time points at which activation was measured were 0, 30, 60 and 120 minutes following exposure of cells to GST-RANKL. B-actin was used as a control.

ERK1/2 = experiment: Western blot of ERK1/2 activation in murine osteoblast precursors; type: cell-based
Procedure: (§1) GST-RANKL-induced activation of MAP kinases is prolonged in murine osteoblasts. Primary osteoblasts were isolated from neonatal murine calvaria by sequential enzymatic digestion. Briefly, calvaria were minced and incubated at room temperature for 20 minutes with gentle shaking in an enzymatic solution containing 0.1% collagenase, 0.05% trypsin, and 4 mM NA2EDTA in calcium- and magnesium-free phosphate buffered saline (PBS). This procedure was repeated to yield a total of six digests. The cells isolated from the last four to six digests were cultured in MEM containing 15% FBS, 50 μM ascorbic acid, and 10 mM β-glycerophosphate. Cells were maintained at 37° C. in a humidified atmosphere containing 6% C02, with daily replenishment of media and cytokines.
(§2) Following treatment with GST-RANKL at the indicated times and dosages, cells were lysed in RIPA buffer containing 10 mM Tris-HCl pH 7.4, 150 mM NaCl, 1% Nonidet P-40, 0.2% sodium deoxycholate, and 1 mM EDTA, with 1 mM Na3PO4, 1 mM NaF, and 1×protease inhibitor cocktail added immediately prior to use. Protein concentration was quantitated and standardized by Micro BCA Protein Assay (Pierce). Lysates were denatured by heat in Laemmli buffer, resolved by SDS-PAGE, and transferred onto nitrocellulose. Levels of total and phosphorylated ERK, JNK, p38, Akt, and IkBα were determined using primary and secondary antibodies according to the manufacturer's established protocols, with conventional chemiluminiscent detection. Membranes were stripped between hybridizations in PBS containing 10 μM β-mercaptoethanol and 2% SDS.
GST-RANKL-induced ERk1/2 activation is prolonged in murine osteoblast precursors. Osteoblast precursors were isolated and maintained according to the procedures set forth in Example 5. The immunoblotting was performed in the same manner as immunoblotting in Example 3.

Akt [1] = experiment: Western blot of Akt phosphorylation in murine osteoblasts; type: cell-based
Procedure: as §1
as §2, with “Lysates were denatured by heat in Laemmli buffer, resolved by SDS-PAGE, and transferred onto nitrocellulose.” left out, “Membranes were stripped between hybridizations in PBS containing 10 μM β-mercaptoethanol and 2% SDS.” left out

Mice = experiment: In vivo stimulation of bone formation in mice, intramedullary femur injection, DEXA; set-up: species or system mouse; conditions: 100 micrograms intramedullary once a day for nine days; versus GST control; day 9
Procedure: In vivo stimulation of bone formation in mice results in 24% increase. Mice were anesthetized with a Ketamine/Xylazine cocktail (10 mg/kg ketamine and 10 mg/kg xylazine IP) and placed in left lateral recumbancy. The major trochanter and lateral femoral condyle of the right femur were identified and the intramedullary injection site was equidistant between these landmarks. Injections of 100 micrograms GST (control) or 100 micrograms GST-RANKL were made once a day for nine days with 29 gauge needles on tuberculin syringes.
On day 9 the mice were re-anesthetized with Ketamine/Xylazine cocktail (10 mg/kg ketamine and 10 mg/kg xylazine IP) and dual energy x-ray absorptiometry (DEXA, Piximus) analysis was done on each animal. Plain radiographs were taken immediately following DEXA analysis (Faxitron, KV 0.15, time=20 sec). Animals were sacrificed by CO2 asphyxiation and both femurs harvested for histological analysis. The femurs were fixed in 10% buffered formalin for 48 hours and decalcified for 1 week. The results, showing a 24% increase in bone density of the femur of GST-RANKL treated mice versus the control, are shown in FIG. 10.

[2] = test system: Neo-natal mouse calvariae; experiment: Ex vivo stimulation of bone formation in whole calvarial organ culture; type: cell-based
Procedure: One commonly used assay is a neonatal mouse calvaria assay. Briefly, four days after birth, the front and parietal bones of ICR Swiss white mouse pups are removed by microdissection and split along the sagittal suture. The bones are then incubated in a specified medium, wherein the medium contains either test or control compounds. Following the incubation, the bones are removed from the media, and fixed in 10% buffered formalin for 24-48 hours, decalcified in 14% EDTA for 1 week, processed through graded alcohols, and embedded in paraffin wax. Three micron sections of the calvaria are prepared and assessed using histomorphometric analysis of bone formation or bone resorption. Bone changes are measured on sections cut 200 microns apart. […]
Ex vivo stimulation of bone formation in whole calvarial organ culture. […] Purified GST-RANKL was then assayed for endotoxin contamination by limulus amoebocyte lysate assay, and quantitated for bioactivity by an in vitro osteoclastogenesis readout.
Test compositions were administered for-a period of 12 hours only at the initiation of the culture (1×) or once at initiation and once three days later, again for a duration of 12 hours (2×). After seven days, calvarial thickness was determined histomorphometrically and compared among the various control and experimental groups to assess bone formation. […]

p38 [3] = experiment: Western blot of p38 phosphorylation in murine osteoblasts; type: cell-based
Procedure: as §1
as §2, with “Lysates were denatured by heat in Laemmli buffer, resolved by SDS-PAGE, and transferred onto nitrocellulose.” left out, “Membranes were stripped between hybridizations in PBS containing 10 μM β-mercaptoethanol and 2% SDS.” left out

ERK [4] = experiment: Western blot of ERK phosphorylation in murine osteoblasts; type: cell-based
Procedure: as §1, §2

ERK [5] = experiment: Western blot of ERK phosphorylation in murine osteoclast precursors; type: cell-based
Procedure: (§3) GST-RANKL rapidly activates MAP kinases in murine osteoclast precursors. Wild type C57BL/6 mice were purchased from Harlan Industries (Indianapolis, Ind.). For the isolation of osteoclast precursors, bone marrow macrophages (BMMs) were isolated from whole bone marrow of four to six week old mice and incubated in tissue culture dishes at 37° C. in 5% CO2. After 24 hours in culture, the non-adherent cells were collected and layered on a Ficoll Hypaque gradient and the cells at the gradient interface were collected. Cells were replated at 65,000/cm^2 in α-minimal essential medium, supplemented with 10% heat inactivated fetal bovine serum, at 37° C. in 5% CO2 in the presence of recombinant mouse M-CSF (10 ng.ml). Cells were treated with GST-RANKL on day 4 or 5. In the experiments addressing the activation of Akt, the cells were cultured in serum and M-CSF free medium for 24 hours prior to GST-RANKL stimulation.
(§4) Immunoblotting (Western blotting) of osteoclast precursors was performed according to the following instructions. Cytokine-treated or control monolayers of BMMs were washed twice with ice-cold PBS. Cells were lysed in the buffer containing 20 mM Tris (pH 7.5),150 mM NaCl, 1 mM EDTA, 1 mM EGTA, 1% Triton X-100, 2.5 mM sodium pyrophoshate, 1 mM β-glycerophosphate, 1 mM Na3PO4, 1 mM NaF, and 1×protease inhibitor cocktail. Fifty μg of cell lysates were boiled in the presence of SDS sample buffer (0.5 M Tris-HCl, pH 6.8, 10% w/v SDS, 10% glycerol, 0.05% w/v bromphenol blue) for 5 minutes and separated on SDS-PAGE, using 8% gels. Proteins were transferred to nitrocellulose membranes using a semi-dry blotter (Bio-Rad, Richmond, Calif.) and incubated in blocking solution (5% non-fat dry milk in tris-buffered saline containing 0.1% Tween 20) for 1 hour to reduce nonspecific binding. Membranes were then exposed to primary antibodies overnight at 4° C., washed three times, and incubated with secondary goat anti-mouse or rabbit IgG horseradish peroxidase-conjugated antibody for 1 hour. […]

IkBα = experiment: Western blot of IkBα phosphorylation in murine osteoblasts; type: cell-based
Procedure: as §1
as §2, with “Lysates were denatured by heat in Laemmli buffer, resolved by SDS-PAGE, and transferred onto nitrocellulose.” left out, “Membranes were stripped between hybridizations in PBS containing 10 μM β-mercaptoethanol and 2% SDS.” left out

p38 [6] = experiment: Western blot of p38 phosphorylation in murine osteoclast precursors; type: cell-based
Procedure: as §3, §4

Akt [7] = experiment: Western blot of Akt phosphorylation in murine osteoclast precursors; type: cell-based
Procedure: as §3
(§5) Immunoblotting (Western blotting) of osteoclast precursors was performed according to the following instructions. Cytokine-treated or control monolayers of BMMs were washed twice with ice-cold PBS. Cells were lysed in the buffer containing 20 mM Tris (pH 7.5),150 mM NaCl, 1 mM EDTA, 1 mM EGTA, 1% Triton X-100, 2.5 mM sodium pyrophoshate, 1 mM β-glycerophosphate, 1 mM Na3PO4, 1 mM NaF, and 1×protease inhibitor cocktail. […]

Mice, C3H/HeN = experiment: In vivo stimulation of bone formation in mice, subcutaneous administration; set-up: species or system mouse; conditions: 100 micrograms subcutaneously once a day for nine days, vs GST control
Procedure: In vivo stimulation of bone formation in mice. Mice, C3H/HeN (Harlan, Indianapolis, Ind.) were administered 100 micrograms GST (control) or 100 micrograms GST-RANKL as obtained in Example 1, subcutaneously, once a day for nine days. […] Upper panels illustrate metaphyseal bone, which is shown at higher magnification in lower panels. […] Dual-energy X-ray absorptiometry (DEXA) analysis of GST or GST-RANKL administered mice was also conducted using standard procedures.

[8] = test system: Primary calvarial osteoblasts; experiment: Alkaline phosphatase (AP) activity in osteoblasts following GST-RANKL exposure; type: cell-based; conditions: 50 ng/ml
Procedure: AP activity following RANKL exposure in osteoblasts. Primary calvarial osteoblasts were cultured in MEM containing 15% FBS, 50 μM ascorbic acid, and 10 mM β-glycerophosphate. Cells were maintained at 37° C., with daily replenishment of media and cytokines. Osteoblast alkaline phosphatase (AP) activity, a direct measure of osteoblast differentiation and function, was quantitated by addition of a calorimetric substrate, 5.5 mM p-nitrophenyl phosphate. The cells were then exposed to GST-RANKL, administered in different regimens. Pulsatile exposure to 50 ng/ml GST-RANKL was provided as 1, 3, 6, 8, or 24 hours of total exposure per 48-hour treatment window. After 4 such 48-hour treatments, AP activity was quantitated (±S.D.) and normalized to total protein levels.

JNK [9] = experiment: Western blot of JNK phosphorylation in murine osteoclast precursors; type: cell-based; conditions: after GST-RANKL stimulation
Procedure: as §3, §5

JNK [10] = experiment: Western blot of JNK phosphorylation in murine osteoblasts; type: cell-based
Procedure: as §1
as §2, with “Lysates were denatured by heat in Laemmli buffer, resolved by SDS-PAGE, and transferred onto nitrocellulose.” left out, “Membranes were stripped between hybridizations in PBS containing 10 μM β-mercaptoethanol and 2% SDS.” left out

[11] = after RANK/GST-RANKL interaction

B1: GST-RANKL: fusion protein of glutathione S-transferase (GST) and murine RANKL residues 158-316, expressed in Escherichia coli, affinity purified (protein)
chain: KPEAQPFAHLTINAASIPSGSHKVTLSSWYHDRGWAKISNMTLSNGKLRVNQDGFYYLYANICFRHHETSGSVPTDYLQLMVYVVKTSIKIPSSHNLMKGGSTKNWSGNSEFHFYSINVGGFFKLRAGEEISIQVSNPSLLDPDQDATYFGAFKVQDID
modifications: left off: a dimerising Fc or GST
activation of c-Fos (c-Fos): prolonged activation | time of peak kinase activation as stated in the description (ERK1/2; osteoblast precursor cells, GST-RANKL stimulation): 5 to 10 min | time up to which ERK activation increased (length of the assay) (ERK1/2; osteoblast precursors): 60 min | time at which ERK activation was first detected (ERK1/2; osteoblast precursors, after GST-RANKL stimulation): 10 min | Akt activation at the time of GST-RANKL stimulation (Akt [1]): detectable | duration for which Akt activation could be detected (Akt [1]; after stimulation): at least 60 minutes | increase in bone density of the femur (DEXA) (Mice): 24% | calvarial thickness at the highest dose tested ([2]; 100 ng/ml, after seven days): doubled | calvarial thickness ([2]; administered 1× or 2× for 12 hours, histomorphometry after seven days): dose-dependent increase | p38 activation at the time of GST-RANKL stimulation (p38 [3]): detectable | duration for which p38 activation could be detected (p38 [3]; after stimulation): at least 60 minutes | time at which ERK activation could still be detected (ERK [4]; after GST-RANKL stimulation): 60 min | time by which both ERKs were activated (ERK [4]; after GST-RANKL stimulation): ≤ 5 min | time of peak ERK activation (ERK [4]; [11]): 10 min | time at which ERK phosphorylation was detected (ERK [5]; after GST-RANKL stimulation): 5 min | time of peak ERK phosphorylation (ERK [5]; [11]): 10 min | time at which ERK phosphorylation was undetectable (ERK [5]; after the interaction): 30 min | time until which IkBα phosphorylation increased (end of the assay) (IkBα): 60 min | time at which IkBα phosphorylation was detected (IkBα; after stimulation): 10 min | time at which p38 phosphorylation was detected (p38 [6]; after GST-RANKL stimulation): 5 min | time of peak p38 phosphorylation (p38 [6]; [11]): 10 min | time at which p38 phosphorylation was undetectable (p38 [6]; after the interaction): 30 min | Akt phosphorylation at the time of GST-RANKL stimulation (Akt [7]; 0 minutes): detectable phosphorylation | time of peak Akt activation (Akt [7]; after GST-RANKL stimulation): 15 min | bone mineral density (DEXA) (Mice, C3H/HeN; tibial metaphyses): significant increase | bone mass (histological examination of tibia) (Mice, C3H/HeN): marked increase | cortical thickness (Mice, C3H/HeN): massive increase | numbers of activated osteoblasts (histological examination of tibia) (Mice, C3H/HeN): net increase | exposure window giving the maximum anabolic effect (AP activity) ([8]; 1, 3, 6, 8 or 24 hours exposure per 48-hour window, 4 treatments): 8 h | AP activity ([8]; administered in an intermittent fashion): increase | time at which JNK was phosphorylated (JNK [9]): 15 min | time by which phosphorylated JNK was undetectable (JNK [9]): ≤ 30 min | JNK activation at the time of GST-RANKL stimulation (JNK [10]): detectable | duration for which JNK activation could be detected (JNK [10]; after stimulation): at least 60 minutes

Reference: patent publication US20030082638A1, “Methods for screening osteogenic compounds” (priority 2001, published 2003)
